The text below walks through data of US20040205843A1 (NORTH CAROLINA STATE UNIVERSITY, published 2004).

First the molecules themselves.
T1: Full length GST-AL1 1-352 (tomato golden mosaic virus (TGMV), UniProt P03567 1-352)
T1 sequence: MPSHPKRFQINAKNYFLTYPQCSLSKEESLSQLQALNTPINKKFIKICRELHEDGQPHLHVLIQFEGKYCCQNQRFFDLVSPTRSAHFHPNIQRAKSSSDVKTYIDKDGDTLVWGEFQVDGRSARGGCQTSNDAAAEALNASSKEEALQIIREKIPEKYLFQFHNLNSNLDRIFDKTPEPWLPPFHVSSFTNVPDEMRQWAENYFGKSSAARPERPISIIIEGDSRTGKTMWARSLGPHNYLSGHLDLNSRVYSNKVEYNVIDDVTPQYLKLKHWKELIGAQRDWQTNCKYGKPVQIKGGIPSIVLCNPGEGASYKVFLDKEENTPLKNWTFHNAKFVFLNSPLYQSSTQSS

B1: AL1 1-180 (other)
chain: MPSHPKRFQINAKNYFLTYPQCSLSKEESLSQLQALNTPINKKFIKICRELHEDGQPHLHVLIQFEGKYCCQNQRFFDLVSPTRSAHFHPNIQRAKSSSDVKTYIDKDGDTLVWGEFQVDGRSARGGCQTSNDAAAEALNASSKEEALQIIREKIPEKYLFQFHNLNSNLDRIFDKTPEP
B2: AL1 147-352 (other)
chain: ALQIIREKIPEKYLFQFHNLNSNLDRIFDKTPEPWLPPFHVSSFTNVPDEMRQWAENYFGKSSAARPERPISIIIEGDSRTGKTMWARSLGPHNYLSGHLDLNSRVYSNKVEYNVIDDVTPQYLKLKHWKELIGAQRDWQTNCKYGKPVQIKGGIPSIVLCNPGEGASYKVFLDKEENTPLKNWTFHNAKFVFLNSPLYQSSTQSS
B3: AL1 134-352 (other)
chain: AAAEALNASSKEEALQIIREKIPEKYLFQFHNLNSNLDRIFDKTPEPWLPPFHVSSFTNVPDEMRQWAENYFGKSSAARPERPISIIIEGDSRTGKTMWARSLGPHNYLSGHLDLNSRVYSNKVEYNVIDDVTPQYLKLKHWKELIGAQRDWQTNCKYGKPVQIKGGIPSIVLCNPGEGASYKVFLDKEENTPLKNWTFHNAKFVFLNSPLYQSSTQSS
B4: TGMV AL1, wild type, full length, untagged (other)
chain: T1 sequence
notes: also called Rep; authentic AL1
B5: AL1 N-DR172 (Ala9), full length, untagged (other)
chain: T1 sequence with N169A, D171A, R172A
B6: AL1 KEE146 (Ala5), full length, untagged (other)
chain: T1 sequence with K144A, E145A, E146A
B7: AL1 E-N140 (Ala4), full length, untagged (other)
chain: T1 sequence with E137A, N140A
B8: AL1 Q-HN165 (Ala8), full length, untagged (other)
chain: T1 sequence with Q162A, H164A, N165A
B9: AL1 REK154 (Ala6), full length, untagged (other)
chain: T1 sequence with R152A, E153A, K154A
B10: AL1 K-E179 (Ala10), full length, untagged (other)
chain: T1 sequence with K176A, E179A
B11: AL1 EKY159 (Ala7) fused to the Gal4 activation domain (pNSB760) (other)
chain: T1 sequence with E157A, K158A, Y159A
B12: AL1 D120 (Ala14) fused to the Gal4 activation domain (pNSB871) (other)
chain: T1 sequence with D120A
B13: AL1 N-DR172 (Ala9) fused to the Gal4 activation domain (pNSB762) (other)
chain: T1 sequence with N169A, D171A, R172A
B14: AL1 Q-HN165 (Ala8) fused to the Gal4 activation domain (pNSB761) (other)
chain: T1 sequence with Q162A, H164A, N165A

Numbering of substitutions follows the chain as printed.

The target in one test is T1, Full length GST-AL1 1-352. The test can be described thus: GST co-purification from insect cells, immunoblot.
As for B1, the binding result is reported as “binds”.

In the case of B2, the binding result is listed as “binds”.

B3: the binding result is “binds”.

In the case of B4, the binding result is recorded as “binds”.

For B5, the binding result is recorded as “binds”.

On to B6, for which the binding result is reported as “binds”.

On to B7, for which the binding result is given as “binds”.

As for B8, the binding result is “binds”.

As for B9, the binding result was “binds”.

B10: the binding result was “binds”.

For another test, the target named is Maize Rb (amino acids 214-866) fused to the Gal4 DNA binding domain (Zm214C) (maize).
Chain of Maize Rb (amino acids 214-866) fused to the Gal4 DNA binding domain (Zm214C) (maize) (P04386 1-147): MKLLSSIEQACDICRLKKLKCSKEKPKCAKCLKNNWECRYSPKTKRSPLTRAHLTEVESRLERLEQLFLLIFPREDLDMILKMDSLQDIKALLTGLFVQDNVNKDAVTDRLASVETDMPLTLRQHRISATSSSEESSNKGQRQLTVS
Assay: not given
On to B11, for which the “Rep/Rb (Rb binding activity relative to wild type)” value was 31 relative to wild type (100).

For a further test, the target named is Wild type TGMV AL1 fused to the Gal4 DNA binding domain (pNSB736) (tomato golden mosaic virus (TGMV)).
Assay: not given
As to B12, the “oligomer. (oligomerization activity relative to wild type)” value was 67 relative to wild type (100).

Turning to B13, the “oligomer. (oligomerization activity relative to wild type)” value was 31 relative to wild type (100).

In the case of B14, the “oligomer. (oligomerization activity relative to wild type)” value was 102 relative to wild type (100).
